Data taken from the DeepSol protein solubility set.

Experiment: soluble on expression in E. coli; label from the status in PepcDB or PDB records

Row | Sequence | soluble on expression in E. coli
1 | MGSDKIHHHHHHMRNYCRWCENDPLLIAYHDKEWGQREGNDQRLFEAMCLELFQSGLSWKTVLQKRDSIRKAFHHFELEKVATMNEQDVERLLKDKGIIRHRKKIEATIQNSRNVVRLQREFGSFREWIESLPNDVEAKAAMISEMFTYMGPITAKSFLEATGFIPVEHDKQCHLFEGKSLQIKPIGTADRGEVQQFFHQHWGSPEMVLSTGVFHCERLPGFLYRNKLGEIIGLITYVTHGKRSIEIISLDSVEEGKGIGTSLLQAVEAEAIEQQVRQIEVITTNDNLHALGFYQKRGFQLKELVVNGVEKARQLKPSIPRKSADGIPIRDELKLVKTMR | not soluble
2 | MNWGEGEWNSFFHFFTKEFINMSESFKELFEQSIAGAQFYPGAIITAKVIDIDDDFVTLNAGLKSEGIVAVEEFYDKNGELEVKVGDTVEVALDSVEDGHGETLLSREKAKRQEAWRKLSKCHENNETVTGLISGKVKGGFTVEIGSIRAFLPGSLVDVRPVRDPSYLEGKELEFKVIKMDLKRNNIVVSRRAVVEEESSADRQALLESLHDGQELHGIVKNLTDYGAFIDLGGIDGLLHITDISWKRVKHPSEVLSVGQDVKVKVLSFDSERNRVSLGMKQLGNDPWVDLVERYPIGKRLQGKVTNITDYGCFVEIEEGVEGLVHMSEMDWTNKNVHPSKVVSLGDVVDVMVLEIDEERRRISLGMKQCVGNPWQQFASTHNKGEKVKGKIRSITDFGIFIGLDGDIDGLVHLSDISWTVPGEEAVKQFKKGQELEAVILAIDPERERISLGLKQLEGDSFASFAETYTKGSIVKGTVTAVEPKTVTVALAEDVSGTIRVSELSDERVDDATTIVKVGDEVEAKITNIDRKNRTISLSVKAKDAQDEADAIKKYSRTEAASTTLGDLLKEKMASKEGELEHHHHHH | soluble
3 | MAHHHHHHMEGEEKVELSQLELKLEELQVIWEDVQATCPATHSSKRRNSSDAVASPPRVRSTSGAAQRQGANTQEPLQLPSPQSKHPSLRLLHANNKGKLRCTNPVASEGAVLGGIVSVSPPHSPANASVGACPHGRDGGVRNCVPSRLPPLDASHAQELLKACSNCGVEQRRPTAQFCWNCGTRI | not soluble
4 | MGSDKIHHHHHHMPKERVDVLAYKQGLFNTREQAKRGVMAGLVVNVINGERYDKPGEKIDEATELKLKGDKLKYVSRGGLKLEKALKVFVISVDGQITLDIGASTGGFTDVMLQNGAQLVYAVDVGTNQLVWKLRQDERVCSMEQYNFRYAEPSDFERGQPTFASIDVSFISLNLILPALSKILTDGGQVVALIKPQFEAGREQIGKHGIVKDKSVHETVLETVTTFATNYGFTVKELDFSPIQGGHGNIEFLAYLEKSAQAQNQVLTKIKSIVEQAHKEFKKNEET | not soluble
5 | MGSDKIHHHHHHMARVPRFALVERDSSNHCTWRAHDLEFVFEEPGARDKFLELVGRYKDRYGVEIRSYCLMGTHPHVTCTCRQEQVQFSRFWQVVNGQFARWYNKVRNRRGQVVMERMRTPRIQEGGAHQLTVMRYGDLNPVRAGLVKSPKDWKWSSYRHYAFGEPNPLITDAPEYLALGKTAQERRKAYQALFALPLSESLRTRRVELVSFPFVGDATWVMRRLEAAGLSPPD | not soluble
6 | MAHHHHHHMFRFCGRRLVARTLPLLADYQELPEAFEFMEHKVADKDIHSAYENMETLRLTVTRQDEFLFKETPVKCVTIVGVNGECGVYPGHAYEITQLTPAPLTVEMPDGTVKKFFTSGGFAHINNEGSCDINCVECIPLTELDVDAAEKALAQQQSALNSAHDDKARAVIEIRIGVLESVIQSLKHA | not soluble
7 | MLDNRPIGVFDSGIGGLTIVKNLMSILPNEDIIYFGDIARIPYGTKSRATIQKFAAQTAKFLIDQEVKAIIIACNTISAIAKDIVQEIAKAIPVIDVITAGVSLVDNLNTVGVIATPATINSNAYALQIHKKNPNIEVYSNPCGLFVSMIEEGFVSGHIVELVAKEYLSYFHDKNIQALILGCTHYPIIKESIAKILDVKLIDPSLQASKMLYSLLFENKLLNTTKSNPEYRFYVTDIPLKFRSVGEMFLQTEMQHLEIVSLDSY | not soluble
8 | MYIDKDDFTAWMERIMDRFDMQDKKIDRVIKGRNCLDGEELLDNQDLCLLLKVAPRTLTRYRKKGILPFLMLDGRCYYRATDVHKLIREKTD | not soluble
9 | MDSPQYLFLDFEFTMPETKTNPDGFCPEIIEVGLVAVVDDQIIGQFSSYVKPLRFPQLTERCKSFLNITQEQIDRGMSFYELVSLLRQYDRDRPTTVMTWGSMDMKVLRENCQSARVEFPFTGEHRDLAMEYKRFFGNKNQTALRKAVQEYGNEAVGKAHCALDDAFTAYTIFRLVENDKKYLAKTKPPTIGERIDLSQLRKKFAL | not soluble
10 | SLTQSLLMYMDGPEVIGSSLGSPMEMEDALSMKGTAVVPFRATQEKNVIQIEGYMPLDCMFCSQTFTHSEDLNKHVLMQHRPTLCEPAVLRVEAEYLSPLDKSQVRTEPPKEKNCKENEFSCEVCGQTFRVAFDVEIHMRTHKDSFTYGCNMCGRRFKEPWFLKNHMRTHNGKSGARSKLQQGLESSPATINEVVQVHAAESISSPYKICMVCGFLFPNKESLIEHRKVHTKKTAFGTSSAQTDSPQGGMPSSREDFLQLFNLRPKSHPETGKKPVRCIPQLDPFTTFQAWQLATKGKVAICQEVKESGQEGSTDNDDSSSEKELGETNKGSCAGLSQEKEKCKHSHGEAPSVDADPKLPSSKEKPTHCSECGKAFRTYHQLVLHSRVHKKDRRAGAESPTMSVDGRQPGTCSPDLAAPLDENGAVDRGEGGSEDGSEDGLPEGIHLDKNDDGGKIKHLTSSRECSYCGKFFRSNYYLNIHLRTHTGEKPYKCEFCEYAAAQKTSLRYHLERHHKEKQTDVAAEVKNDGKNQDTEDALLTADSAQTKNLKRFFDGAKDVTGSPPAKQLKEMPSVFQNVLGSAVLSPAHKDTQDFHKNAADDSADKVNKNPTPAYLDLLKKRSAVETQANNLICRTKADVTPPPDGSTTHNLEVSPKEKQTETAADCRYRPSVDCHEKPLNLSVGALHNCPAISLSKSLIPSITCPFCTFKTFYPEVLMMHQRLEHKYNPDVHKNCRNKSLLRSRRTGCPPALLGKDVPPLSSFCKPKPKSAFPAQSKSLPSAKGKQSPPGPG | not soluble
11 | AEFFPEIPKVQFEGKESTNPLAFKFYDPEEIIDGKPLKDHLKFSVAFWHTFVNEGRDPFGDPTADRPWNRYTDPMDKAFARVDALFEFCEKLNIEYFCFHDRDIAPEGKTLRETNKILDKVVERIKERMKDSNVKLLWGTANLFSHPRYMHGAATTCSADVFAYAAAQVKKALEITKELGGEGYVFWGGREGYETLLNTDLGFELENLARFLRMAVDYAKRIGFTGQFLIEPKPKEPTKHQYDFDVATAYAFLKSHGLDEYFKFNIEANHATLAGHTFQHELRMARILGKLGSIDANQGDLLLGWDTDQFPTNVYDTTLAMYEVIKAGGFTKGGLNFDAKVRRASYKVEDLFIGHIAGMDTFALGFKVAYKLVKDGVLDKFIEEKYRSFREGIGRDIVEGKVDFEKLEEYIIDKETIELPSGKQEYLESLINSYIVKTILELR | soluble
12 | VSDFKYGALLNITTLSNKVLSLGYEKPFIDSGQARTRLNGPLAEFFLYKTDGIFKTQEQIDNYVTPDGEPIMISGKRPQLGDVKYIDTDNNGQITADDRQFCGSPWAKMQMSLVLNAEWKDFDFSMMWNGQFGNKIYNVSKWQGRLFSDNSNYLRFKKGEEPYQVNQNSDTPRIIYGDQRNSWDADRFLENGSYFRLKNISIGYNLKKEWLKNLGIDKLRLYATGSNLLTFTGYSGLDPDFINTNIWNSGTDSFSYPNTRSVMFGLDLTF | not soluble
13 | MAHHHHHHMFTKFLSRVKAMPPRSGDWANKLGPVALMGCSVGAHMSSTKLLNHFYTSSRDCDMYAELTFHEPGPVECPPETVIFFPVIQCGEMLDEKGEPSEATKDDWYLAMTESTTELLEKGYVPVSVGGDGSATLAMVEAYKRLFRSSEVVLIHCSARPSLEKAEQPIRVLLEKDLLKGVVEIGNRCVSSGDRKIRKQHKVMYMDMQAIYAKGLFCIRDIRNDYPVFLSIDADVLDPAFAPGVESPVPGGFSTRDLLHIMTGIRGPKVAGIDIHGYHPSLDMCRSDGVGLTQMALTKVLKESIVKAYTISTQTAEEGLERVRLMQRQGTLSDNPYPDH | not soluble
14 | MSNQEPYRIPKRTASDPNQSGSQGSCVRPNQEGNVKKEESVNSAPRRMFTLPSSSSTSGAQVFNPIGKCQVQTNSFKIDITKMPKRLLRLSMETRLCGGKTELNLNDGVQAVAGNLNSQEDFTTQEWSQISNYLRKKNAEFKVKISPNGFVYTNGPNSLSDANRQELPRLVEIATSEVLNTPEYLQFGNQTYAVNEPAVSSPDALSEIRSGFDKSVRLVDGENGSTEIIMTIDNKLAPFHKSTSVLKMICDKFEEIVNPARQHRGSQDRRGDRDRGYRGGRSYGHDNRRRSRSRSPQDRGDRGDRGNHHRDHNEDWDERKVKEVERRLLEEPRALGSIADALKGLIVESVHLSKDVNRNSRIKLNEGKNDEQEISVADYYLKQYNYKLKFPYLPMIVSKRFRSETMFPVELLKIVPGQKISIQKINPNVQSAMTGPNSILPSKHVRIVARILESSLKIASNPYLKTFGIRISKDPIKLEAKILSPAQLSFNKYSIMPKPGSVQFEPSREDKFFKPAKIYEVAVIAFRVVSINLSDFCMKLCDLCRRSGLEIRRETRDWIKIENFNPTSTIELKEQMKRLQQSNCSIIIGITEEKKPEVHDVLKYFEAAVGLQTMQIHSKTAGFIISGNGQTAGNVIKKLNLKCGGINYIVEVPQSFNRTVVCSNNSFVQKKLFDGTQFIGFEMTHGAARTLFDKSNGTFDGEPTIVGCAYSLQKATDLGGFNWFQEQNEYRLKNLGTHIPKCLQYYKESSGSLPEKIVIYRTGAGEGDFDRVQQEITEIRSSFAEVQEGYKPSLVVIVANKTSHLRVFPVEIREGDTAMKQNVRSGTCLDGKITSAGREEFVLISQTALISTAKPTKYTIAANDPKWSKNEVMNLTYILSFAHQVCYQPPAVPHILYAADNLAKRGRNNFIQHKKLGELSKTIQATLTKYSDLNIEMDSKELSGELVEDITKSMNVMAIKARNFWA | not soluble
15 | MGSDKIHHHHHHMKIDLIISADDIKEEKVKNKTAVVIDMLRATSVITTALNNGCKRVVPVLTVEEALKKVKEYGKDAILGGERKGLKIEGFDFSNSPMEYTEDVVKGKTLIMTTTNGTRAIKGSETARDILIGSVLNGEAVAEKIVELNNDVVIVNAGTYGEFSIDDFICSGYIINCVMDRMKKLELTDAATTAQYVYKTNEDIKGFVKYAKHYKRIMELGLKKDFEYCCKKDIVKLVPQYTNGEIL | soluble
16 | METIKIGVVGLGTVGTGVVKMLQAHQEKISEITGRKLELACVVVHNLKKHEQVDLGDVQMTDQIATLLDDPSIQIMVEVMGSIHPAKEYITQALQAGKHVVTANKDLIAQYGRELVQIARENHRDLFYEASVAGGIPILRTIDNSFAADRIQRVMGIVNGTTNYIMTQM | not soluble
17 | MGSDKIHHHHHHMRDFSSDHSALALNTASLGHNLEGHGAGWTSEQVIDACAERGFGSIVFWRREIGERAVKIGERVRSAGLTVAGLCRTPFLVGTQATDVESVMDDFKRSIDMAAALGAPVLTIVVGGVHPGTKGVAESLKIVADRVAEAAPCAQASGVKLALEPLNPVYAGNRSCLTTLRDAVDLCDRIAAPNVGIAVDVYHVWWDTELERQLKRAGAERIYGYHLCDWLAETNDVLLDRGMMGDGVADLKAIRSFVEGAGYRGPCEVEIFSANDWWKRDPGEVLDVMVERFRNCC | not soluble
